Numbering of substitutions follows the chain as printed. Names and notes keep the numbering of the source.
Assays:
[1] = target: X1BR2-GFP (C-terminal BRCT domain of XRCC1 fused to C-terminal GFP) (human, UniProt P18887 538-633); assay: GFP-fluorescence-based competition binding assay
SEC = target: the molecule itself; assay: SEC
L3BR (residues 825-922) = target: T1, L3BR (residues 825-922) (human, UniProt P49916-3 825-922); assay: native gel or EMSA
T1 sequence (looked up): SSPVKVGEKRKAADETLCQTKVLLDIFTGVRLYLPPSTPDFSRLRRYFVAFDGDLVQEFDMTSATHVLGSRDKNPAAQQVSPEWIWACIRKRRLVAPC

SAXS = target: the molecule itself; assay: SAXS

B1: MBP-L3BR^832 (C-terminal BRCT domain of DNA ligase IIIα, residues 832-922, N-terminal MBP fusion) (domain or fragment, human, UniProt P49916-3 832-922, looked up)
chain: EKRKAADETLCQTKVLLDIFTGVRLYLPPSTPDFSRLRRYFVAFDGDLVQEFDMTSATHVLGSRDKNPAAQQVSPEWIWACIRKRRLVAPC
- EC50 [1]: 1240 nM
- stoichiometry N (SEC): 2

B2: X1BR2 L626E (residues 538-633), designated wild type (WT) in Figure 1E (domain or fragment, human, UniProt P18887 538-633, looked up)
chain: ELPDFFQGKHFFLYGEFPGDERRKLIRYVTAFNGELEDYMSDRVQFVITAQEWDPSFEEALMDNPSLAFVRPRWIYSCNEKQKLLPHQEYGVVPQA
- binding result (L3BR (residues 825-922)): binds

B3: X1BR2 Y565A (on the L626E template, residues 538-633) (domain or fragment, human, UniProt P18887 538-633, looked up)
chain: B2 chain with Y28A
- binding result (L3BR (residues 825-922)): binds

B4: X1BR2 F569A (on the L626E template, residues 538-633) (domain or fragment, human, UniProt P18887 538-633, looked up)
chain: B2 chain with F32A
- binding result (L3BR (residues 825-922)): binds

B5: X1BR2 N570A (on the L626E template, residues 538-633) (domain or fragment, human, UniProt P18887 538-633, looked up)
chain: B2 chain with N33A
- binding result (L3BR (residues 825-922)): binds

B6: L3BR^832 fused to C-terminal GFP (domain or fragment, human, UniProt P49916-3 832-922, looked up)
chain: B1 chain
- stoichiometry N (SEC): 2

B7: phosphorylated XRCC1ΔN (XRCC1ΔN-p, residues 294-633) (domain or fragment, human, UniProt P18887 294-633, looked up)
chain: AVTGKPRGEGTEPRRPRAGPEELGKILQGVVVVLSGFQNPFRSELRDKALELGAKYRPDWTRDSTHLICAFANTPKYSQVLGLGGRIVRKEWVLDCHRMRRRLPSQRYLMAGPGSSSEEDEASHSGGSGDEAPKLPQKQPQTKTKPTQAAGPSSPQKPPTPEETKAASPVLQEDIDIEGVQSEGQDNGAEDSGDTEDELRRVAEQKEHRLPPGQEENGEDPYAGSTDENTDSEEHQEPPDLPVPELPDFFQGKHFFLYGEFPGDERRKLIRYVTAFNGELEDYMSDRVQFVITAQEWDPSFEEALMDNPSLAFVRPRWIYSCNEKQKLLPHQLYGVVPQA
modifications: phosphorylated by casein kinase II (CK2) in the region between X1BR1 and X1BR2; sites not given
- binding result (SAXS): binds

B8: L3BR^832 (untagged, residues 832-922 of DNA ligase IIIα) (domain or fragment, human, UniProt P49916-3 832-922, looked up)
chain: B1 chain
- stoichiometry N (SAXS): 2

B9: MBP-L3BR^844 (L3BR^832 lacking its 12 N-terminal residues, MBP fusion) (domain or fragment, human, UniProt P49916-3 844-922, looked up)
chain: TKVLLDIFTGVRLYLPPSTPDFSRLRRYFVAFDGDLVQEFDMTSATHVLGSRDKNPAAQQVSPEWIWACIRKRRLVAPC
- EC50 [1]: 670 nM
